Measured values published in patent publication US20230159643A1 (H LUNDBECK A S, published 2023).

Experiments:
Experiment in all cases: BLI Octet 384RED, antibody on Protein A sensor, Sortilin construct in solution
[1] = molecular target: T1, Sortilin SORTECDBAP_hB45678 (human/tetraodon chimera)
T1 construct: Shuffle construct
T1 chain: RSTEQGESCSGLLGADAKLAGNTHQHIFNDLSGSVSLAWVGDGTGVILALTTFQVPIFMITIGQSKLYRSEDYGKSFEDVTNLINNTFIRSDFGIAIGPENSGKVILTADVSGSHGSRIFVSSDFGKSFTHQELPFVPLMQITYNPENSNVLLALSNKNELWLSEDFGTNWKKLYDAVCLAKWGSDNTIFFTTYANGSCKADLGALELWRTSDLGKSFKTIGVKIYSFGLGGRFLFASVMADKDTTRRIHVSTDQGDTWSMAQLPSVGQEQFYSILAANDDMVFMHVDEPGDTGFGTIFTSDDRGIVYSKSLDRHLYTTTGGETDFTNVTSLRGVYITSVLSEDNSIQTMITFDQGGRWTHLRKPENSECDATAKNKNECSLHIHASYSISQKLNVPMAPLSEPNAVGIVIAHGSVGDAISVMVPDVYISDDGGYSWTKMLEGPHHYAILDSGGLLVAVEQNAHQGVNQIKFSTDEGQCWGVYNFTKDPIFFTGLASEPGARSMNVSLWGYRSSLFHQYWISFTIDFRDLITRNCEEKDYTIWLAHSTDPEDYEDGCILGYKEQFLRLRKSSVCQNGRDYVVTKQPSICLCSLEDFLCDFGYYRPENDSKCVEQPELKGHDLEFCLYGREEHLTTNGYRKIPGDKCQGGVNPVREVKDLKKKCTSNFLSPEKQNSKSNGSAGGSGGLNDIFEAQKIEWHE
Procedure: (§1) Binding kinetics of anti-Sortilin HuMab antibodies to Sortilin were determined using Octet 384RED (Fortebio, Menlo Park, USA). HuMab solutions of 2 μg/ml were made by dilution in sample diluent (ForteBio, art. No. 18-5028). Prot A sensors (ForteBio, art. no. 18-0004) were prewetted with kinetics buffer (1:10 sample diluent in PBS) for at least 600 seconds. Subsequently sensors were immobilized with HuMab solution for 600 seconds. A baseline response was obtained by dipping in kinetics buffer for 120 seconds. Association of SORTECD constructs was performed during a 1000 seconds incubation. This was followed by dissociation in kinetics buffer for 100 seconds. After dissociation, sensors were regenerated (10 mM Glycine pH 1.0) and neutralized (kinetics buffer) 3 times for 5 seconds. […] A molecular weight of 76.8 kDA was used for SORTECDHis. Data was fitted with ForteBio Analysis 6.4 software, using a global full fit.

Sortilin hSORTECDBAP = molecular target: T2, Sortilin hSORTECDBAP (human, UniProt Q99523 78-755, biotinylated on the BAP tag by co-expression of biotin ligase)
T2 construct: Soluble extracellular region (ECD, aa 1-755) with BAP tag
T2 sequence: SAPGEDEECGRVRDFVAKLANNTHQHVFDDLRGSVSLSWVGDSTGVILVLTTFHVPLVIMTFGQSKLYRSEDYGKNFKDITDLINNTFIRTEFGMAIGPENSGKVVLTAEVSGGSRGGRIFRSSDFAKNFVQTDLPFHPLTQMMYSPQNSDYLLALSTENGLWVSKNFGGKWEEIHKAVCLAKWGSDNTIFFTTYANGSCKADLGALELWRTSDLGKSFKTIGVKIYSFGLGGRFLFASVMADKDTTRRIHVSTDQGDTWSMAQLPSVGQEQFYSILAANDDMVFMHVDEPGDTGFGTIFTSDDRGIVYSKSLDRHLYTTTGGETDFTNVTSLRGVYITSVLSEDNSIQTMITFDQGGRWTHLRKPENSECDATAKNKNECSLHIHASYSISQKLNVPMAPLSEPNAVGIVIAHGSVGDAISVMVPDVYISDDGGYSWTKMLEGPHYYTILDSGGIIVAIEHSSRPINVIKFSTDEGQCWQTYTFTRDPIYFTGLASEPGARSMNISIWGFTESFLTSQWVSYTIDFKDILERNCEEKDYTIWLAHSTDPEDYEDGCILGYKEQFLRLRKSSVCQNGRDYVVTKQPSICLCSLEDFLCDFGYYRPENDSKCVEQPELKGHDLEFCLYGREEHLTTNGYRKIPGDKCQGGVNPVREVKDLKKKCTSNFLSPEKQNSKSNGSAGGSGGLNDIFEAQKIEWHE
Procedure: as §1

[2] = molecular target: T3, Sortilin SORTECDBAP_hB12390 (human/tetraodon chimera)
T3 construct: Shuffle construct
T3 chain: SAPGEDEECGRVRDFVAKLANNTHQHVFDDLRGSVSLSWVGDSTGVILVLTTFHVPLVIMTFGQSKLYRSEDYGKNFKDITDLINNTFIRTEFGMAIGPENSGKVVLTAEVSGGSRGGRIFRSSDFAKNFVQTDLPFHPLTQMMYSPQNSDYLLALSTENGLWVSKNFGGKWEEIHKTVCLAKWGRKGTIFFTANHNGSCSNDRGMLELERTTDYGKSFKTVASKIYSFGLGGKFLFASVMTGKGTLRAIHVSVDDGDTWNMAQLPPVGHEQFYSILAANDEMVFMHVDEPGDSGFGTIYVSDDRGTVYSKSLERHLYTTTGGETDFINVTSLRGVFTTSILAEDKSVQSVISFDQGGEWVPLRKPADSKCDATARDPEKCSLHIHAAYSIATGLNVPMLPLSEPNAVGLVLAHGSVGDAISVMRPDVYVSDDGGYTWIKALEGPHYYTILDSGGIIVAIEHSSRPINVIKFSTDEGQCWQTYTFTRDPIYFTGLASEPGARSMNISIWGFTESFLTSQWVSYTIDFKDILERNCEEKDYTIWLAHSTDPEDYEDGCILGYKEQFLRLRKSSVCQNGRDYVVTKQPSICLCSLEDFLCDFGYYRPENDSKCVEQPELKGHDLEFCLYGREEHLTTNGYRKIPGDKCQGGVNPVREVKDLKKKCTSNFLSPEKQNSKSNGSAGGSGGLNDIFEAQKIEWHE
Procedure: as §1

- binding result [1]: no binding (tested: 10 µg/ml construct)
- EC50 (Sortilin hSORTECDBAP): 0.0191 µg/mL
- EC50 [2]: 0.0123 µg/mL
B1: 1320 (antibody, V domains shown)
VH: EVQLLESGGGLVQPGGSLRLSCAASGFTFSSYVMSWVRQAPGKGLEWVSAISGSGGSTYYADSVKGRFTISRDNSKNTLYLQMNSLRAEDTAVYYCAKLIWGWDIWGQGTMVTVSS
VL: EIVLTQSPATLSLSPGERATLSCRASQSVSSYLAWYQQRPGQAPRLLIYDASNRATGIPARFSGSGSGTDFTLSISSLEPEDFAVYYCQQRTNWSITFGQGTRLEIK
notes: also called IgG1-6003-1320; Antibody 1320
